Test results: US20200230115A1, “METHODS OF TREATING INFLUENZA-ASSOCIATED VIRAL PNEUMONIA” (priority 2017, published 2020)
“Also recorded” adds a separate entry of the source.

Assays:
Design in all cases: species or system DBA/2J mice
Conditions in all cases: mouse, in vivo
[1] = tested on: IAV (WSNHAnc-Asp225Gly)
[2] = tested on: IAV (WSNHAnc-Asp225Gly); remark: listed apart in the source
[3] = tested on: IAV (WSNHAnc-Asp225Gly); remark: listed apart in the source

B1: KGF: keratinocyte growth factor, a potent pulmonary epithelial mitogen; cognate receptor FGFR2 (protein, UniProt P21781 32-194, looked up)
Fibroblast growth factor 7: CNDMTPEQMATNVNCSSPERHTRSYDYMEGGDIRVRRLFCRTQWYLRIDKRGKVKGTQEMKNNYNIMEIRTVAVGIVAIKGVESEFYLAMNKEGKLYAKKECNEDCNFKELILENHYNTYASAKWTHNGGEMFVALNQKGIPVRGKKTKKEQKTAHFLPMAIT
KGF dose of maximal effect on IAV-induced mortality [1]: 5 mg/kg
mortality after KGF pretreatment [1]: did not enhance mortality
mortality, dose response [1]: dose-dependent acceleration of mortality
shortening of survival [1]: 3 days
pulmonary viral burden vs PBS/IAV controls [2]: three- to fivefold greater; also recorded: No difference in viral burden
IAV-NP staining of lung sections [3]: substantially more intense; also recorded: markedly more intense and diffuse
blinded semiquantitative analysis of IAV-NP staining [3]: KGF-induced increase in viral burden and acceleration of spread
